In article doi:10.1101/664102:
Where a chain is given by its changes, count along the chain named. In names and notes the source's numbering stands. Several values for one entry are separate records, joined by “and”; a condition that tells them apart may be missing. Identical values can stand only once.

Assays:
Test in all cases: fluorescence polarisation
[1] = molecular target: fluorescein-labeled CaV1.2 IQ peptide WT (residues 1644-1666) (rat)
[2] = molecular target: fluorescein-labeled CaV1.2 IQ peptide K1662E (rat)
[3] = molecular target: fluorescein-labeled CaV1.2 IQ peptide K1647A (rat)
[4] = molecular target: fluorescein-labeled CaV1.2 IQ peptide K1647E (rat)
[5] = molecular target: fluorescein-labeled CaV1.2 IQ peptide WT (residues 1644-1666) (rat); remark: listed apart in the source

## Ca2+-free calmodulin (apoCaM) (from UniProt P0DP33 1-149) (natural protein)
[1]
  Kd: 10 µM and 2.6 µM
[2]
  fold decrease in binding affinity against the WT pair: > 5 fold

## apoCaM mutant E88K (from UniProt P0DP33 3-149) (natural protein)
[1]
  fold decrease in binding affinity against the WT pair: > 5 fold

## apoCaM mutant F90A (from UniProt P0DP33 3-149) (natural protein)
[1]
  fold decrease in binding affinity against WT apoCaM: 3.3 fold

B1: α-actinin-1_EF34 (residues 822-892) (domain or fragment)
chain: DTDTADQVMASFKILAGDKNYITMDELRRELPPDQAEYCIARMAPYTGPDSVPGALDYMSFSTALYGESDL
[3]
  fold increase of Kd against the WT IQ peptide: 5 fold
[4]
  fold increase of Kd against the WT IQ peptide: 5 fold

B2: α-actinin-1 EF3/4 mutant F833A (domain or fragment)
chain: B1 chain with F12A
[5]
  fold decrease in binding affinity against WT α-actinin-1 EF3/4: 8 fold

B3: α-actinin-1_EF34 mutant E847K/E851K (domain or fragment)
chain: B1 chain with E26K, E30K
[5]
  fold increase of Kd against WT α-actinin-1 EF3/4: 12 fold
